Publication PMC2940942 (Journal of Molecular Biology, 2009)
Where two headings read alike, the source gives them in different places.

Legend:
SEC = target: the molecule itself; experiment: SEC
cyclophilin A [1] = target: T1, cyclophilin A (UniProt P62937 1-165); experiment: NMR titration
cyclophilin A [2] = target: T1, cyclophilin A; experiment: NMR titration; remark: listed apart in the source

B1: CD147^22–269 (isoform 2 without the signal peptide) (receptor)
chain: AAGTVFTTVEDLGSKILLTCSLNDSATEVTGHRWLKGGVVLKEDALPGQKTEFKVDSDDQWGEYSCVFLPEPMGTANIQLHGPPRVKAVKSSEHINEGETAMLVCKSESVPPVTDWAWYKITDSEDKALMNGSESRFFVSSSQGRSELHIENLNMEADPGQYRCNGTSSKGSDQAIITLRVRSHLAALWPFLGIVAEVLVLVTIIFIYEKRRKPEDVLDDDDAGSAPLKSSGQHQNDKGKNVRQRNSS
- binding result (SEC): binds

B2: CD147^22–214 (domain or fragment)
chain: AAGTVFTTVEDLGSKILLTCSLNDSATEVTGHRWLKGGVVLKEDALPGQKTEFKVDSDDQWGEYSCVFLPEPMGTANIQLHGPPRVKAVKSSEHINEGETAMLVCKSESVPPVTDWAWYKITDSEDKALMNGSESRFFVSSSQGRSELHIENLNMEADPGQYRCNGTSSKGSDQAIITLRVRSHLAALWPFLG
- Kd (cyclophilin A [1]): > 1 mM

Binder: GSHLAALWPFLG [CD147^10mer peptide (CD147 residues 205–214)]
- Kd (cyclophilin A [2]): 4.2 ± 0.2 mM
